Target: the molecule itself
Assay: SEC-MALS; Superdex 200 HR 10/30, 20 mM Tris HCl, 150 mM NaCl, without DTT; mini-DAWN EOS and Optilab DSP detectors

B1: mouse CARMA1 CARD (amino acids 14-109) with C-terminal His-tag (domain or fragment, UniProt Q8CIS0 14-109, looked up)
chain: TLKDEEEALWDNVECNRHMLSRYINPAKLTPYLRQCKVIDEQDEDEVLNAPMLPSKINRAGRLLDILHTKGQRGYVVFLESLEFYYPELYKLVTGK
notes: CARMA1 (CARD11), mouse, CARD domain, amino acids 14-109; the solution experiments used the plain protein; Model built from residue 22 to 108, loop 64-70 missing; Vector pOKD (home-made); also called CARD11 CARD; not shown: His-tag, C-terminal, kept
- stoichiometry N: 2

From publication PMC3818214, “Novel Disulfide Bond-Mediated Dimerization of the CARD Domain Was Revealed by the Crystal Structure of CARMA1 CARD” (PLoS ONE, 2013)
